This data set concerns the molecule itself. The data set is described as follows: AUC.

B1: human VASP^1-380aa, unlabeled wild type (untagged hVASP^1-380aa) (natural protein)
chain: GSMSETVICSSRATVMLYDDGNKRWLPAGTGPQAFSRVQIYHNPTANSFRVVGRKMQPDQQVVINCAIVRGVKYNQATPNFHQWRDARQVWGLNFGSKEDAAQFAAGMASALEALEGGGPPPPPALPTWSVPNGPSPEEVEQQKRQQPGPSEHIERRVSNAGGPPAPPAGGPPPPPGPPPPPGPPPPPGLPPSGVPAAAHGAGGGPPPAPPLPAAQGPGGGGAGAPGLAAAIAGAKLRKVSKQEEASGGPTAPKAESGRSGGGGLMEEMNAMLARRRKATQVGEKTPKDESANQEEPEARVPAQSESVRRPWEKNSTTLPRMKSSSSVTTSETQPCTPSSSDYSDLQRVKQELLEEVKKELQKVKEEIIEAFVQELRKRGSP
Turning to B1, the “stoichiometry N” value was 4.
